In patent US20180155451A1 (published 2018):
Substitutions are numbered along the chain they refer to. In names and notes the source's numbering stands.

T1: FcγRIIb (human, UniProt P31994 43-217)
T1 construct: extracellular domain; for crystallography expressed with Kifunesine and trimmed with Endo F1; also called FcgRIIb; FcgR2b; not shown: His tag attached to the C terminus
T1 sequence (looked up): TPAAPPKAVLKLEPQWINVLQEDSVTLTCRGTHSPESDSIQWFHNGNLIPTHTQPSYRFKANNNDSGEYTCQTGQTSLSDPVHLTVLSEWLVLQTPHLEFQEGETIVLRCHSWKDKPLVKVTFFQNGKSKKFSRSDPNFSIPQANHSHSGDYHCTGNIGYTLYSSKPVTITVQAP

T2: FcγRIIa H (FcγRIIa, allotype with His at position 131), extracellular domain with C-terminal His tag (human, UniProt P12318 34-217)
T2 construct: extracellular domain; Soluble receptor expressed in FreeStyle293 cells and used as the analyte in Biacore; also called FcgRIIa H; FcγRIIa type H; not shown: His tag attached to the C terminus
T2 sequence (looked up): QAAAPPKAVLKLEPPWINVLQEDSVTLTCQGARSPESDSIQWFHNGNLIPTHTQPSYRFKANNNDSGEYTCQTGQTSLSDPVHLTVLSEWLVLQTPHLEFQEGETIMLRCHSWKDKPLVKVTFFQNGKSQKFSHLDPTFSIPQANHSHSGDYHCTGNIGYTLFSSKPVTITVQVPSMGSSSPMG

B1: GpH7-A26/GpH7-B3/GpL16-k0 (antibody, human IgG1, kappa)
heavy 1: QVQLVQSGAEVKKPGASVTVSCKASGYTFTDYEMHWIRQPPGEGLEWIGAIDPKTGDTAYSESFQDRVTLTADKSTSTAYMELSSLTSEDTAVYYCTRFYSYTYWGQGTLVTVSSASTKGPSVFPLAPSSKSTSGGTAALGCLVKDYFPEPVTVSWNSGALTSGVHTFPAVLQSSGLYSLSSVVTVPSSSLGTQTYICNVNHKPSNTKVDKKVEPKSCDKTHTCPPCPAPELLGAPSVFLFPPKPKDTLMISRTPEVTCVVVDVSHEDPEVKFNWYVDGVEVHNAKTKPREEQYNSTYRVVSVLTVLHQDWLNGKEYKCKVSNKALPAPIEKTISKAKGQPREPQVYTLPPSRKELTKNQVSLTCLVKGFYPSDIAVEWESNGQPENNYKTTPPVLDSDGSFFLYSKLTVDKSRWQQGNVFSCSVMHEALHNRYTQKSLSLSP
heavy 2: not shown
light: DIVMTQSPLSLPVTPGEPASISCQASESLVHSNRNTYLHWYLQKPGQSPQLLIYKVSNRFSGVPDRFSGSGSGTDFTLKISRVEAEDVGVYYCSQNTHVPPTFGQGTKVEIERTVAAPSVFIFPPSDEQLKSGTASVVCLLNNFYPREAKVQWKVDNALQSGNSQESVTEQDSKDSTYSLSSTLTLSKADYEKHKVYACEVTHQGLSSPVTKSFNRGEC
notes: G237A in one H chain
B2: GpH7-A26/GpL16-k0 (antibody, human IgG1, kappa)
heavy: B1 heavy 1
light: B1 light
notes: G237A in both H chains
B3: GpH7-A29/GpL16-k0 (antibody, human IgG1, kappa)
heavy: B1 heavy 1 with A235L
light: B1 light
notes: G237L in both H chains
B4: GpH7-A29/GpH7-B3/GpL16-k0 (antibody, human IgG1, kappa)
heavy 1: B1 heavy 1 with A235L
heavy 2: not shown
light: B1 light
notes: G237L in one H chain
B5: GpH7-A43/GpH7-B3/GpL16-k0 (antibody, human IgG1, kappa)
heavy 1: B1 heavy 1 with A235G, L326D
heavy 2: not shown
light: B1 light
notes: L328D in one H chain
B6: GpH7-A43/GpL16-k0 (antibody, human IgG1, kappa)
heavy: B1 heavy 1 with A235G, L326D
light: B1 light
notes: L328D in both H chains
B7: GpH7-A42/GpL16-k0 (antibody, human IgG1, kappa)
heavy: B1 heavy 1 with A235G, L326E
light: B1 light
notes: L328E in both H chains
B8: GpH7-A42/GpH7-B3/GpL16-k0 (antibody, human IgG1, kappa)
heavy 1: B1 heavy 1 with A235G, L326E
heavy 2: not shown
light: B1 light
notes: L328E in one H chain
B9: GpH7-A5/GpH7-B3/GpL16-k0 (antibody, human IgG1, kappa)
heavy 1: not shown
heavy 2: not shown
light: B1 light
notes: also called HeCon Ab; control heterodimerized antibody
B10: GpH7-A44/GpH7-B80/GpL16-k0 (antibody, human IgG1, kappa)
heavy 1: B1 heavy 1 with A235G, I330E
heavy 2: not shown
light: B1 light
notes: Anti-glypican-3 IgG1 with I332E in both H chains
B11: GpH7-A44/GpH7-B3/GpL16-k0 (antibody, human IgG1, kappa)
heavy 1: B1 heavy 1 with A235G, I330E
heavy 2: not shown
light: B1 light
notes: Heterodimerized anti-glypican-3 IgG1; I332E only in the GpH7-A5-derived chain (A44)
B12: GpH7-A5/GpH7-B80/GpL16-k0 (antibody, human IgG1, kappa)
heavy 1: not shown
heavy 2: not shown
light: B1 light
notes: Heterodimerized anti-glypican-3 IgG1
B13: GpH7-A5/GpH7-B3 variant T335_05P/GpL16-k0 (heterodimerized antibody, He Ab) (antibody, human IgG1, kappa)
heavy 1: not shown
heavy 2: not shown
light: B1 light
notes: Anti-glypican-3 IgG1; substitution only in the GpH7-B3 chain; Position is EU numbering; also called He Ab T335P
B14: GpH7-A5/GpH7-B3 variant Y300_07I/GpL16-k0 (heterodimerized antibody, He Ab) (antibody, human IgG1, kappa)
heavy 1: not shown
heavy 2: not shown
light: B1 light
notes: Anti-glypican-3 IgG1; substitution only in the GpH7-B3 chain; Position is EU numbering; also called He Ab Y300I
B15: GpH7-A5/GpH7-B3 variant T335_06M/GpL16-k0 (heterodimerized antibody, He Ab) (antibody, human IgG1, kappa)
heavy 1: not shown
heavy 2: not shown
light: B1 light
notes: Anti-glypican-3 IgG1; substitution only in the GpH7-B3 chain; Position is EU numbering; also called He Ab T335M
B16: GpH7-A5/GpH7-B3 variant Y300_06M/GpL16-k0 (heterodimerized antibody, He Ab) (antibody, human IgG1, kappa)
heavy 1: not shown
heavy 2: not shown
light: B1 light
notes: Anti-glypican-3 IgG1; substitution only in the GpH7-B3 chain; Position is EU numbering; also called He Ab Y300M
B17: GpH7-A5/GpH7-B3 variant Y300_08L/GpL16-k0 (heterodimerized antibody, He Ab) (antibody, human IgG1, kappa)
heavy 1: not shown
heavy 2: not shown
light: B1 light
notes: Anti-glypican-3 IgG1; substitution only in the GpH7-B3 chain; Position is EU numbering; also called He Ab Y300L
B18: GpH7-A5/GpH7-B3 variant T335_08L/GpL16-k0 (heterodimerized antibody, He Ab) (antibody, human IgG1, kappa)
heavy 1: not shown
heavy 2: not shown
light: B1 light
notes: Anti-glypican-3 IgG1; substitution only in the GpH7-B3 chain; Position is EU numbering; also called He Ab T335L
B19: GpH7-A5/GpH7-B3 variant T335_09D/GpL16-k0 (heterodimerized antibody, He Ab) (antibody, human IgG1, kappa)
heavy 1: not shown
heavy 2: not shown
light: B1 light
notes: Anti-glypican-3 IgG1; substitution only in the GpH7-B3 chain; Position is EU numbering; also called He Ab T335D

target: T1, FcγRIIb; assay: SPR (Biacore), relative binding
Excerpt: The constructed expression vectors were each combined with GpH7-A5 and GpL16-k0 to express heterodimerized antibodies, or they were combined with GpL16-k0 alone but not with other H chains to express homodimerized antibodies. These antibodies were expressed and purified according to the method described in Reference Example 1. The resulting purified antibodies are the following: the heterodimerized antibodies GpH7-A5/GpH7-B12/GpL16-k0, GpH7-A5/GpH7-B13/GpL16-k0, GpH7-A5/GpH7-B14/GpL16-k0, and GpH7-A5/GpH7-B15/GpL16-k0; and homodimerized antibodies GpH7-B12/GpL16-k0, GpH7-B13/GpL16-k0, GpH7-B14/GpL16-k0, and GpH7-B15/GpL16-k0. The prepared antibodies were used to assess the binding activity to each FcγR by the method described in Reference Example 2.
(§1) Analysis of interaction between objective antibody and the FcγR was carried out using Biacore T100 (GE Healthcare). HBS-EP+ (GE Healthcare) was used as the running buffer, and the measurement temperature was set to 25° C. Chips produced by immobilizing the antigen peptide by the amine coupling method to a Series S Sencor Chip CM5 (GE Healthcare), or alternatively, chips produced by allowing preliminarily biotinylated antigen peptides to interact with and immobilize onto a Series S Sensor Chip SA (certified) (GE Healthcare) were used. Antibodies of interest were captured onto an antigen peptide-immobilized chip, and allowed to interact to each FcγR diluted with running buffer. To regenerate and repeatedly use the chip, the antibodies captured on the chip were washed off by reacting 10 mM glycine-HCl, pH 1.5.

binding result	Binder
binds	B1
binds	B2
binds	B3
binds	B4
binds	B5
binds	B6
binds	B7
binds	B8

target: T3, FcγRIIIa extracellular domain with C-terminal His tag (human, UniProt P08637 17-208); assay: SPR (Biacore), kinetic analysis, antibody captured, FcγRIIIa as analyte
T3 construct: extracellular domain; also called FcgRIIIa; 3a; not shown: His tag at the C terminus
Excerpt: Then, the present inventors introduced I332E into only one H chain, and assessed whether the Tm is elevated as compared to when I332E is introduced into both H chains. Expression vectors inserted with GpH7-A44 (SEQ ID NO: 49) and GpH7-B80 (SEQ ID NO: 50) resulting from the introduction of I332E into GpH7-A5 and GpH7-B3, respectively, were constructed. They were combined with GpH7-B3, GpH7-A5, and GpL16-k0 to express and prepare the following antibodies according to the method described in Reference Example 1: the heterodimerized antibodies GpH7-A5/GpH7-B80/GpL16-k0 and GpH7-A44/GpH7-B3/GpL16-k0 in which only one of the H chains was introduced with I332E, and the homodimerized antibody GpH7-A44/GpH7-B80/GpL16-k0 in which both of the H chains were introduced with I332E. GpH7-A5/GpH7-B3/GpL16-k0 was prepared as a control. Each antibody was assessed for the FcγRIIIa-binding activity according to the method described in Reference Example 2. In addition, the antibodies were compared for the Tm of CH2 domain by thermal shift assay according to the method described in Reference Example 5 (Tables 28 and 29).
as §1
The FcγR-binding activity of each antibody was assessed primarily using as an indicator the FcγR-binding activity and dissociation constant for FcγR.

T3 sequence (P08637 17-208): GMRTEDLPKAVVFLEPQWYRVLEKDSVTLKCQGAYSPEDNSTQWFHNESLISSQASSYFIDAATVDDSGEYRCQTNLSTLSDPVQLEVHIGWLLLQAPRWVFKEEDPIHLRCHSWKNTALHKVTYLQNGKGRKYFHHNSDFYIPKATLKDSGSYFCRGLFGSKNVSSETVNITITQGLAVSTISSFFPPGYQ

KD ratio	Kd [nM]	Binder
1 fold (KD of GpH7-A5/GpH7-B3/GpL16-k0 divided by KD of the antibody)	1600	B9
7.1 fold (KD of GpH7-A5/GpH7-B3/GpL16-k0 divided by KD of the antibody)	230	B10
4.4 fold (KD of GpH7-A5/GpH7-B3/GpL16-k0 divided by KD of the antibody)	370	B11
3.4 fold (KD of GpH7-A5/GpH7-B3/GpL16-k0 divided by KD of the antibody)	470	B12

target: T2, FcγRIIa H (FcγRIIa, allotype with His …); assay: SPR (Biacore T100), antibody captured on antigen-peptide chip, FcγRIIa H as analyte; response per captured antibody relative to GpH7-A5/GpH7-B3/GpL16-k0
Procedure: as §1

He/Con_2aH	Binder
108 relative binding activity (control heterodimerized antibody GpH7-A5/GpH7-B3/GpL16-k0 = 100)	B13
108 relative binding activity (control heterodimerized antibody GpH7-A5/GpH7-B3/GpL16-k0 = 100)	B14
103 relative binding activity (control heterodimerized antibody GpH7-A5/GpH7-B3/GpL16-k0 = 100)	B15
105 relative binding activity (control heterodimerized antibody GpH7-A5/GpH7-B3/GpL16-k0 = 100)	B16
108 relative binding activity (control heterodimerized antibody GpH7-A5/GpH7-B3/GpL16-k0 = 100)	B17
106 relative binding activity (control heterodimerized antibody GpH7-A5/GpH7-B3/GpL16-k0 = 100)	B18
107 relative binding activity (control heterodimerized antibody GpH7-A5/GpH7-B3/GpL16-k0 = 100)	B19
